{"source": "patent US11542515B2", "about": "“Methods and compositions for increasing efficiency of targeted gene modification using oligonucleotide-mediated gene repair” (CIBUS US LLC, priority 2016, dated 2023)", "test_system": "EPSPS 2-25 gene", "assay": "EPSPS precise edits by Cas9 RNP plus GRON in leaf protoplasts (deep sequencing)", "type": "cell-based, Brassica napus", "conditions": "with Cas9 protein complexed with BnEPSPS gRNA-1, three weeks, three independent experiments", "protocol": "Brassica napus protoplasts derived from leaves of in vitro propagated nodal cuttings were seeded in a 50 ml centrifuge tube at 2,000,000 cells per tube and at a cell density of 5×10^6 cells/ml. CRISPR-Cas9 targeting the EPSPS 2-25 gene along with GRON was delivered as a ribonucleoprotein complex using the PEG method or by alternative delivery methods such as by electroporation, cell-penetrating peptides and/or lipid based delivery techniques. Protoplasts were incubated in the dark at 25° C. for three weeks, and then analyzed deep sequencing in order to determine the percentage of precise EPSPS edits and frequency of indels within a given treatment.\nThe CRISPR-Cas9 consists of two components: the Streptococcus pyogenes Cas9 (SpCas9) and sgRNA which form the RNP CRISPR-Cas9 complex when mixed. The sgRNA is a fusion of CRISPR RNA (crRNA) and trans-activating crRNA (tracrRNA). The crRNA region contains the spacer sequence used to guide the Cas9 nuclease to the EPSPS target gene. In these experiments RNP CRISPR-Cas9 is used to target the EPSPS 2-25 gene. The GRON contains the coding sequence of the EPSPS gene near the site of conversion as well as nucleotide alterations to produce the desired changes to the EPSPS gene.", "note": "d = 2'-deoxy (DNA); m = 2'-O-methyl", "data": [{"molecule": "2′OMe; BnEPSPS-2-25/NC 101-mer: 101-mer 2OMe GRON targeting Brassica napus EPSPS 2-25, SEQ ID NO: 336 (nucleic acid, sugars from the 5' end m1 d100, backbone and methylation of C not given here) UTACCTTGCGTTGCCACCTGCAGCAGTAACTGCAGCGGTAAGTGTACGCATCGCTATTCCAGCATTCCCAAGGTACAACTCGATATCACTCTTGGAATCTA", "values": [{"measurement": "gene editing in the targeted epsps gene(s)", "result": "0.07-0.125%"}]}]}
